A short description of the data set: yeast display, Sf9 membrane polyspecificity reagent, FACS + sequencing; frameworks hold sequencing errors. An outline of the steps:
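Galactose-induced (36–48 hours) yeast carrying a synthetic nanobody display library were exposed to 10% biotinylated, detergent-solubilized Sf9 membrane reagent at 4 °C for 1 hour. FACS followed streptavidin microbead enrichment, using low and high (top ~1%) gates for expression (anti-HA) and reagent binding (streptavidin). Colony PCR, MiSeq 2 × 250 sequencing and CDR-length filtering followed. Labels for polyreactivity reflect the gate of origin.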
“QVQLVESGGGLFQAGGSLRLSCAASGRIFGWYAMGWYRQAPGKDRELVAAMSSSTSTYYADSVKGRFTISRDNEKNTVYLEMNSLKPEDTAVYYCNADWYYQRGQNYWFRYDYWGQGTQVTVCS”: the “polyreactivity (PSR sort gate)” value is listed as “high polyreactivity”.

For “QVQLVESGGGLVQAGGSLRLSCAASGSIFWYYGMGWYRPAPAKERELVAAISSGGSTNYADSVKGRFAISRDNAKNTVYIQMNSLKPEDTAVYYCAVRFTFPRYPASYSRYYYWGQGTQVTVSS”, the “polyreactivity (PSR sort gate)” value is given as “high polyreactivity”.

For the sequence “QVQLVESGGGLVQAGGSLRLSCAASGRIFYFNAMGWYRPAPGKDRELVADISSGGRTNYADSVKGRFTISRDNAKNTVYLQMNSLKPEDTAVYYCNAEAYTSSGGYRGYDFDYWGQGTQVTVSS”, the “polyreactivity (PSR sort gate)” value is “low polyreactivity”.

As for “QDQLVESGGGLVQAGGSLRLSCAASGRTFGYYVMGWYRQAPGKERELVAAISRSGGTTYYADSVKGRFTISRDNAKNTVYLQMNSLKPEDTAVYYCATDSRTGYDYWGQGTQVTVSS”, the “polyreactivity (PSR sort gate)” value is “high polyreactivity”.

Take “QVQLVESGGGLVQAGGSLRLSWAASGSIITSNGMGWYRQAPGKERELVAAITSGTSTYYADSVKGRFTISRDNAKNTVYLQMNSLKPEDTAVYYCAAGRWWVYRYARYYYWGQGTQVTVSS”: the “polyreactivity (PSR sort gate)” value is “high polyreactivity”.

Regarding “QVQLVESGGGLVQAGGSLRLSCAASGSTFTPNAMGWYRQAPGKERELVAAIRGLNGRTYYADSVKGRFTISRDNAKNTVYLQMHSLKPEDTAVYYCAAGGYSYYFAWHDYWGQGTQVTVSS”, the “polyreactivity (PSR sort gate)” value is given as “low polyreactivity”.

Take “QVQLVESGGGLVQAGGSLRLSCAASGRIFYAYAMGWYRQAPGKEREFVAAISKRGGSTYYADSVKGRFTISRDNAKNTVYFQMNSLKPEDTAVYYCAADHEAIVRYDYWGQGTQVTVSS”: the “polyreactivity (PSR sort gate)” value is “low polyreactivity”.

“QVQLVESGGGLVQAGGSLRLSCAASGSTFSNNSIGWYRQAPWKETELVAAISWYGDSTYADSVKGRFTISRDNAKNTVYLQMNSLKAEATAVYYCAKDTIITPGRRKSPRDRHGYWGQGTQVTVSS”: the “polyreactivity (PSR sort gate)” value is recorded as “low polyreactivity”.

With “QFQLVESGGGLVQAGGSLRLSCAASGSTFDINDMGWYRQAPGKERELVAAITTSGASTYYADSVKGRFTISRDNAKNTVYLQMNSLKPEETAVSYCAADCLSYVWYVWYDYWGQGTKVTVSS”, the “polyreactivity (PSR sort gate)” value is “low polyreactivity”.

On to “QVQLVESGGGLVQAGGSLRLSCAASGSLFGRYAMGWYRQAPGTEREFVAAISRGATNTYYADSVKGRFTISRDNAKNTVYLQMNSLKPEDTAVYYCARTQRYDYGYDYWGQGTQVTVSS”, for which the “polyreactivity (PSR sort gate)” value is reported as “low polyreactivity”.

Regarding “QVQLVESGGGLVQAGGSLRLSCAASGSTIGKNVMGWYRQAPGKEREVVAAISARGGRSYYADSVKGRFTISRDIAKNTVYLQMNSLKPEDTAVYYCNTERSYTGTGRYRSSTAYGYWGQGTQVTVSS”, the “polyreactivity (PSR sort gate)” value is “high polyreactivity”.

As for “QVQLVESGGGLVQAGGSLRLSCAGSGSIFYQYAMGWYRQAPGKERELVAAISDSGGSTHYADSVKGRFTISRDNAKNTVYLQMNSLKPEDTAVYYCPANLYYQYGGDYWGQGSQVTVSS”, the “polyreactivity (PSR sort gate)” value was “low polyreactivity”.

For “QVQLVESGGGLVQAGGSLRLSCAASGSTFYINAMGWYRPAPGKERELVAAITDSGGSTYYADSVKGRFTISRDNAKNTVSLQMNSLKPEDTAVYYCATDGYDPRGYDYWGQGTQVTVSS”, the “polyreactivity (PSR sort gate)” value is on record as “high polyreactivity”.

For “QVQLEESGGGLVQAGGSLRLSCAASGFTFNYYTMGWYTQAPGKERELVATISTRGGSTYYADSVKGRFTISRDNAKNSVYLQMNSLKPEDTAVYYCNVGQKSVSSAYDYWGQGTEVTVSS”, the “polyreactivity (PSR sort gate)” value is given as “high polyreactivity”.

Regarding “QVQLVESGGGIVQAGGSLRLSCAASGRTFDSYAMGWYRQAPGKERELVAAITYSGGSTYYADSVKGRFTISRDNAKNTVYLQMNSLKPEDTAVYYCARDRFYYRLAGSKGRRKGDYWGQGTQVTVSS”, the “polyreactivity (PSR sort gate)” value is on record as “high polyreactivity”.

As to “QVQLVESGGGLVQAGGSLRLSCAASGSIFLRYAMGWSRQARGKERELVAAITSSGRTNYADPVKGRFTISRDNAKNTVYLQMNSLKPEDTAVYYCAAVSYRQGVYRRNRYYYWGQGTQVTVSS”, the “polyreactivity (PSR sort gate)” value was “high polyreactivity”.

For “QVQLQESGGGLVQAGGSLRMSCAASGSISHYIFMGWYRQAPGKEREFVAGIGYGGTTNYADSVKVRFTISRDNAKNTVYLQMNRLKPEDTAMYYCAAREATEFYLYYWGQGTQVTVSS”, the “polyreactivity (PSR sort gate)” value is reported as “low polyreactivity”.

“QVQLVDSGGGLVQAGGSLRLSCAASVRIFYEYAMGWYRKAPGKERQFVASISRTDGGTYYADSVKGRFTISRDNAKNTVYLQMNSLKPEENAVYYCATRAYYNTEVYYWGQGTQVTVSS”: the “polyreactivity (PSR sort gate)” value is on record as “high polyreactivity”.

For the sequence “QVQLVESGGGLVQAGGSLRLSCAASGLIFITYAMGWYIQAPGKERELVATITLRGGSTYYADSVKGRFTISRDNAKNTVYLQMNSLKPEDTAVYYCAADVGYWGRSRGYPSDDYDYWGQGTQVTVSS”, the “polyreactivity (PSR sort gate)” value is “low polyreactivity”.

For “QVQLVESGGGLVQAGGSLRLSCAASRFIFWSYAMGWYRQAPGKERELVAAISWRGGSTYYADSVKGRFTISRDNAKNTVYLQMNSLKPEDTAVYYCAAESYNGYDYWGQGTQVTVSS”, the “polyreactivity (PSR sort gate)” value was “high polyreactivity”.

In the case of “QVQLVESGGGLVQAGGRLRLSCAASGRTFYGYAMGWYRQAPGKERELVASISRDGSTNYADSVNGRFTISRDNAKNTVYLQMHSLKPEDTAVYYCAADIWYYRYPIYYYSYDYWGPGTQVTVSS”, the “polyreactivity (PSR sort gate)” value is “low polyreactivity”.

For the sequence “QVQLVESGGGLVQAGGSLRLSCAASGSIFTLNTMGWYIQAPGKERELVAVISRSGDRTYYADSVKGRFTISRDNAKNTVYLQMNSLKPEDTAVYYCAADTTKRVRGYDYWGQGTQVTVSS”, the “polyreactivity (PSR sort gate)” value is “high polyreactivity”.

On to “QVQLVESGGGLVQAGGSIPLSCAASGIIFYYNTMGWYRQAPGKERELVATSTASDGSTYADSVKGRFTISSDNAKNTVYLQMNRLKPEDTAVYYCNADTRTQGPFSAPYYREMNYWGQGSQVTVSS”, for which the “polyreactivity (PSR sort gate)” value is reported as “low polyreactivity”.

“QVQLVESGGGLVQAGGSLRISCAASGRTFSNYAMGWYRQAPGKERELVAAISGSGGSTRYADSVKGRFTISRDNANITVYLQMNSLKPEDTAVYYCAARGAGPLHNHYSWGQGTQVTVSS”: the “polyreactivity (PSR sort gate)” value is reported as “high polyreactivity”.

For the sequence “QVQLVESGGGLVQAGGSLRLSCAASGLTFQYYVMGSYRQAPGKERELVAAISSGGSTYYADSVKGRFTISRDNAKNTVYLQMNSLKPEDTAVYYCAAEAGYAYPLWPYTFPFEYWGQGTQVTVSS”, the “polyreactivity (PSR sort gate)” value is on record as “low polyreactivity”.

For the sequence “QVQLVESGGGLFQAGGSLRLSCAASGRTFRDYVMGWYRKATGKERELVAAISTRGASTYYADSVKGRFTISRDNAKNTVDLQMNSLKPEDTAVYYCAARSTRRGNEYDYWGQGTQVTGSS”, the “polyreactivity (PSR sort gate)” value is given as “high polyreactivity”.

Take “QVQLVESGGGLVQAGGSLRLSCAASGFTIVWYAMGWYRQATGKERELVAAISSGVSTYYADSVKGRFTISRDNAKNTVYLQMNSLKPEDTAVYYCAADREYYDEYAGYEYWGQGTQVTVSS”: the “polyreactivity (PSR sort gate)” value is reported as “low polyreactivity”.

In the case of “QVQLVQSGGGLVQAGGSLRLSCAASGYTFYVNTMGWYRKAPGKERELVAVISSGGRTNYADSVKGRFTISRDNAKNTVYLQMNSLKPEDTAVYYCAAIGWRTRYRFEYWGIGTQVTVSS”, the “polyreactivity (PSR sort gate)” value is “high polyreactivity”.

In the case of “QVQLVESGGGLVQAGGSLRLSCAASGCTRWYAMGWYRQAPGKERELVAAINGRGVSTYYAVSVKGRFRISRDNAKHTVYLQMNSLKQADTAVYYCAAYAYYDRYRRYDYWGQGTQVTVST”, the “polyreactivity (PSR sort gate)” value is recorded as “low polyreactivity”.

As to “QVQLVESGGGLVQAGGSLRLSCAASGSTFWTNAMGWYRQAPGKERQLVAASTEDGGSTYYADSVKGRFTISRDNAKNTVYLQMNSLKREVTAVYYCATVIGYLDDYLFPYPVPYYYWGQGTQVTVSS”, the “polyreactivity (PSR sort gate)” value is “low polyreactivity”.

“QVQLVESGGGLVQAGGSLRLSCAASGRTFVKNTMGWYRQATGKERELVAAISSSGGSTYYADSVKGRFTISRHNAKNTVYLQMNSLNPEDTAVYFCAVSYPYKHAGGWYAYNYWGQGTQVTVSS”: the “polyreactivity (PSR sort gate)” value is “high polyreactivity”.

As for “QVQLVESGGGLVQAGGSLRLSCAASGRTFSYNTMGCYRQAPGKERELVARITWGGGSTNYADSVKGRFTISRDNAKNTVYLQMNSLKPEDTAVYYCAREYSSVYWVRHLFYYWGQGTQVTVSS”, the “polyreactivity (PSR sort gate)” value is listed as “low polyreactivity”.

“QVQLVESGGALVQAGGSLRLSCAASGSIFRYYAMGWYRQAPVKERELVAAIDFSGGRTYYADSVKGRFTISRDNAKNTVYLQMNRLKPEDTAVYDCARKYTTAYGSTFYYWGQGTQVSVSS”: the “polyreactivity (PSR sort gate)” value was “high polyreactivity”.

“QVQLVESGGGLVQAGGSLRLSCAASGSIFSLYTMGWYRQAPGKERELVARITTSGGTTRYADSVKGRFTISRDTSKNTVYLQMISLKPEDTAVYYCAADRSPFWRGYVRYNYWGQGTQVTVSS”: the “polyreactivity (PSR sort gate)” value is given as “high polyreactivity”.

For the sequence “QVQLVESGGGLVQAGGSLRLSCAASGFIIGVYAMGWYRQAPGKEREFVAAISLTGGSTSYADSVKGLFTISRDNAKNTVYLQMNSLKREDTAVYYCAADAWFWVRWGENYWGQGTQVTVSS”, the “polyreactivity (PSR sort gate)” value is recorded as “low polyreactivity”.

With “QVQLVESGGGLVQAGGSLRLSCAASGSTFPGYAMGWYRQAPGKERELVASITSSGDNTYYADSVKGRFTISRDNAKNSVYLQMNSLKPEDTAVYYCAAPTKYRSRRYYWGQGTQVTVSS”, the “polyreactivity (PSR sort gate)” value is “high polyreactivity”.

For “QVQLVESVGGLVQAGGSLRLSCGASGSIFVANAMGWYIQAPGKEREFVAAITGSGGSTYYADSVKGRFTISRDNAKNTVYLQMNSLKPEDTAVYYCTGDYTVKFGYWGQGTQVTVSS”, the “polyreactivity (PSR sort gate)” value is listed as “low polyreactivity”.

For “QVQLVESGGGLVQAGGSLRLSCAASGGTFDSYAMGWYRQAPGKERELVAAITQSGGRTYYADSVKGRFTISRDNAKNTDYLQMNSLKPEDTAVYYCAAKGITRYGYWGQGTQVTVSS”, the “polyreactivity (PSR sort gate)” value is recorded as “high polyreactivity”.

Take “QVHLVESGGGLVQAGGSLRLSCSASGSTFYRYAMGWYRQAPGKERELVAAINTGGSTNYADSVKGRFTISRDNAKNTVYLQMNSLKPEDTAVYYCAARFQYYRKYDYWGQGTQVTVSS”: the “polyreactivity (PSR sort gate)” value is listed as “low polyreactivity”.

With “QVQLVESGGGLVQAGGSLRLSCAASGRIFSRNAMGWYRQAPGKERELVAAITYSGGSTYYADSVKGRFTISRDNAKNTVYLQMNSLKPEDTAVYYCNADLYLQLPESYEYDYWGQGTQVTVSS”, the “polyreactivity (PSR sort gate)” value is “high polyreactivity”.
